PMC4982137, “Mycobacterium tuberculosis H37Ra: a surrogate for the expression of conserved, multimeric proteins of M.tb H37Rv” (Microbial Cell Factories, 2016)
Counter-ions that a name gives are not always drawn.

What was measured:
[1] = molecular target: MT-H-Eno (M.tb H37Rv Enolase) (Mycobacterium tuberculosis, UniProt P9WNL1)
[2] = molecular target: transferrin-biotin (human) (UniProt P02787); test: pull-down
[3] = tested on: NC(=O)c1ccc[n+]([C@@H]2O[C@H](COP(=O)(O)OP(=O)(O)OC[C@H]3O[C@@H](n4cnc5c(N)ncnc54)[C@H](O)[C@@H]3O)[C@@H](O)[C@H]2O)c1; test: purified protein; details: pH 8.5; 25.0 °C
O=C[C@H](O)COP(=O)(O)O = test: purified protein; details: pH 8.5; 25.0 °C
[4] = molecular target: T1, MT-PykA-H (M.tb H37Rv PykA) (Mycobacterium tuberculosis, UniProt P9WKE5)
T1 construct: gene pyk
T1 sequence (P9WKE5 whole entry, looked up): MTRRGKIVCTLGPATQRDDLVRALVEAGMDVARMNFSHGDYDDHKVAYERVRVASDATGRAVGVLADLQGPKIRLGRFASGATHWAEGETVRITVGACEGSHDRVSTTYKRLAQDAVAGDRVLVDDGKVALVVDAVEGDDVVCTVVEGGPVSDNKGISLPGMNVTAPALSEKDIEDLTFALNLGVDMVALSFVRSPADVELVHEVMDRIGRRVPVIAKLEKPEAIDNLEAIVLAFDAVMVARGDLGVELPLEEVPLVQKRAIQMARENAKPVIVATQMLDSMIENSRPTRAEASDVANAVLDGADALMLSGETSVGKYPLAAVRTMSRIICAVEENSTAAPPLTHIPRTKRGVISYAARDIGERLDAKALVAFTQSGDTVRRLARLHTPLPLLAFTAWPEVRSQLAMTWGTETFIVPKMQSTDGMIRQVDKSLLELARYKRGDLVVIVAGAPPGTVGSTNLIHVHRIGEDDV

Chain of MT-H-Eno (M.tb H37Rv Enolase) (P9WNL1 whole entry, looked up): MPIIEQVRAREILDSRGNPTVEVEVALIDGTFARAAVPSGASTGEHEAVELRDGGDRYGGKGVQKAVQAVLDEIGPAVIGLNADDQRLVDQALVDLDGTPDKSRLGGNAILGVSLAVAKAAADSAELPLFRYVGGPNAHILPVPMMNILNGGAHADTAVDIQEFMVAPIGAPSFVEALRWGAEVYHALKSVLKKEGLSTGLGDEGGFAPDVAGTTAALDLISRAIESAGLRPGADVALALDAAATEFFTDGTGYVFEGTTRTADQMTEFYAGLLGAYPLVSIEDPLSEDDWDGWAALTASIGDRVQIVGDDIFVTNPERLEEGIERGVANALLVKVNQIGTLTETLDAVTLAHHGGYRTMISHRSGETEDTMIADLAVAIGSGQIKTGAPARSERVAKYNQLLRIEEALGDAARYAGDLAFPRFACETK
Chain of transferrin-biotin (human) (P02787 20-698): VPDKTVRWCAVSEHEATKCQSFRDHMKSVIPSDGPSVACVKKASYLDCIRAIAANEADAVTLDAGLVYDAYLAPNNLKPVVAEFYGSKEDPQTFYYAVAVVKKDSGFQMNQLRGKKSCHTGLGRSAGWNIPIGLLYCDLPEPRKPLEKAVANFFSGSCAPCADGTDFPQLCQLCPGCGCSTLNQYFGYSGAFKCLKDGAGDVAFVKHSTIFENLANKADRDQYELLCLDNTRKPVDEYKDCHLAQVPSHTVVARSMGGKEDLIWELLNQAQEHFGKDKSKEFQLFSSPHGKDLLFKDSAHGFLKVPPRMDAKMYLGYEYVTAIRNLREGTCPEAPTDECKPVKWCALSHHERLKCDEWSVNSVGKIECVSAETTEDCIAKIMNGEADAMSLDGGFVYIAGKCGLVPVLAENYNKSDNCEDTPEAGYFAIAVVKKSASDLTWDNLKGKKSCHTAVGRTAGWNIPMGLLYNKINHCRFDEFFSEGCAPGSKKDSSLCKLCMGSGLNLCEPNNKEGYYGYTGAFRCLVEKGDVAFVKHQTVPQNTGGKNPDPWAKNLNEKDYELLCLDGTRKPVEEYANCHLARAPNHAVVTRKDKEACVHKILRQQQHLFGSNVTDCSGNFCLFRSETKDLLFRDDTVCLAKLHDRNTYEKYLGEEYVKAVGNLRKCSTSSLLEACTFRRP

O=C(O)[C@@H](CO)OP(=O)(O)O [D (+)-2 phosphoglyceric acid sodium salt]
absorbance increase at 240 nm [1]: buffer lacking the specific substrate 2-PG

EC-H-GAPDH: recombinant M.tb H37Rv GAPDH with an N-terminal His tag, expressed in E. coli (from UniProt P9WN83 1-339) (enzyme)
percent decrease of binding against MT-GAPDH-H (densitometry) [2]: 70%

MT-GAPDH-H (M.tb rGAPDH) (Mycobacterium tuberculosis H37Rv)
Km [3]: 101.2 ± 8.9 µM | Km (O=C[C@H](O)COP(=O)(O)O): 169.6 ± 10.53 µM | kcat (O=C[C@H](O)COP(=O)(O)O): 0.00332 ± 0.0002 s⁻¹

C=C(OP(=O)(O)O)C(=O)O [sodium phosphoenol pyruvate]
lactate dehydrogenase-coupled NADH oxidation at 340 nm [4]: buffer lacking the specific substrate sodium phosphoenol pyruvate
